# Measured values published in PMC11132685.
# Biological target: tetrabrachion-stabilised recombinant N2 NA (NACHO) of A/MORAMANGA/1907/2017 (not stated | influenza A virus (H3N2) A/MORAMANGA/1907/2017)
# Assay: SEC-MALS; purified NACHOs; oligomeric state; conditions not given
substance,measurement,value
tetrabrachion-stabilised recombinant N2 NA (NACHO) of A/MORAMANGA/1907/2017 (enzyme),stoichiometry N,4
